US20240116985A1, “STAPLED PEPTIDES AND METHODS THEREOF” (priority 2020, published 2024)
Starred links: 1 amine or outer side, 2 acyl side, 3 side chain; linkers in the order of their positions; H or OH if unused. Positions of bridges follow the written chain, without caps; N, C: chain ends. Non-standard residues stand in square brackets, D forms with d. Primed or numbered codes have the meaning given here. PyrS2″ = (S)-3-amino-1-((pent-4-en-1-yloxy)carbonyl)pyrrolidine-3-carboxylic acid (stapling residue), C=CCCCOC(=O)N1CC[C@@](N[*:1])(C(=O)[*:2])C1; B5(4) = 2,2-bis(4-pentenyl)glycine = 2-amino-2-(pent-4-en-1-yl)hept-6-enoic acid (stitching residue), C=CCCCC(CCCC=C)(N[*:1])C(=O)[*:2]; B5(5) = 2,2-bis(4-pentenyl)glycine, 2-amino-2-(pent-4-en-1-yl)hept-6-enoic acid (stitching residue), C=CCCCC(CCCC=C)(N[*:1])C(=O)[*:2]; TfeGA = (S)-2-amino-3-((carboxymethyl)(2,2,2-trifluoroethyl)amino)propanoic acid, O=C([C@H](CN(CC(=O)[*:3])CC(F)(F)F)N[*:1])[*:2]; PyrS2 = (S)-3-amino-1-((pent-4-en-1-yloxy)carbonyl)pyrrolidine-3-carboxylic acid, C=CCCCOC(=O)N1CC[C@@](N[*:1])(C(=O)[*:2])C1; B5(12) = 2-amino-2-(pent-4-en-1-yl)hept-6-enoic acid (two olefin side chains), C=CCCCC(CCCC=C)(N[*:1])C(=O)[*:2]; EtGA = (S)-2-amino-3-((carboxymethyl)(ethyl)amino)propanoic acid, CCN(CC(=O)[*:3])C[C@H](N[*:1])C(=O)[*:2]; B5(3) = 2,2-bis(4-pentenyl)glycine (stitching residue), C=CCCCC(CCCC=C)(N[*:1])C(=O)[*:2]; B5 = 2-amino-2-(pent-4-en-1-yl)hept-6-enoic acid, C=CCCCC(CCCC=C)(N[*:1])C(=O)[*:2]; Bta = N[C@@H](Cc1csc2ccccc12)C(=O)O; αAllylPro = C=CC[C@@]1(C(=O)O)CCCN1; tBuAla = CC(C)(C)C[C@H](N)C(=O)O; 3Thi = N[C@@H](Cc1ccsc1)C(=O)O; Aad = N[C@@H](CCCC(=O)O)C(=O)O; Cit = NC(=O)NCCC[C@H](N)C(=O)O; S8 = C=CCCCCCC[C@](C)(N)C(=O)O

What was measured:
[1] = molecular target: full-length beta-Catenin (Uniprot ID P35222) (Homo sapiens (Human)) (UniProt P35222); assay: fluorescence polarization competition; displacement of 5FAM-TCF4(10-53) from full-length beta-catenin
Target sequence in this assay (P35222 whole entry, the tested form may be a part, one chain of several): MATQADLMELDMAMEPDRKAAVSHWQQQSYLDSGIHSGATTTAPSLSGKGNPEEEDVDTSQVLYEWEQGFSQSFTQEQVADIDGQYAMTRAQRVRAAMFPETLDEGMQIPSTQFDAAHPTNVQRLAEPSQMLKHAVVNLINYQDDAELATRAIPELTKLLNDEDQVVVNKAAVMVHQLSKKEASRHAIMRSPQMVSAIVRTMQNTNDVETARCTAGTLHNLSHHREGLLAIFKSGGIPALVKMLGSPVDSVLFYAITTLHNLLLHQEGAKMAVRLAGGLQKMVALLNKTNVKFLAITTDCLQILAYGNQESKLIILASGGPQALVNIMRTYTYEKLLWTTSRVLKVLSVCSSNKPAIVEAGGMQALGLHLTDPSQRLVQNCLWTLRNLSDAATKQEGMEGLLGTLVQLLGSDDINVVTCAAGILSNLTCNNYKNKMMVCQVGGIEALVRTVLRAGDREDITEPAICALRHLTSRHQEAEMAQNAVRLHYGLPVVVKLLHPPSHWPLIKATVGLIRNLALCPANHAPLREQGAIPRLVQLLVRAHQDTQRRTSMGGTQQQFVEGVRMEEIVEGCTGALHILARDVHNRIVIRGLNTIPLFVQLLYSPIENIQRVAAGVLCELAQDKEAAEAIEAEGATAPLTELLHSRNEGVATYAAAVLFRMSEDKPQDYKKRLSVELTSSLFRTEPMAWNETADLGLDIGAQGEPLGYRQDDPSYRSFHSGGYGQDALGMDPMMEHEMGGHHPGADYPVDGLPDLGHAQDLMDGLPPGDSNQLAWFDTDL

[2] = molecular target: Bcat-Halo (beta-catenin HaloTag construct expressed in HEK293 cells) (UniProt P35222); assay: NanoBRET Abs IC50 in HEK293 cells; Bcat-Halo with TCF4-Luc as competitor
[3] = molecular target: full-length beta-Catenin (Uniprot ID P35222) (Homo sapiens (Human)) (UniProt P35222); assay: fluorescence polarization competition; 10 nM full-length beta-catenin with 10 nM 5FAM-TCF4 (residues 10-53) probe as competitor
Target sequence in this assay (P35222 2-781 limits assumed): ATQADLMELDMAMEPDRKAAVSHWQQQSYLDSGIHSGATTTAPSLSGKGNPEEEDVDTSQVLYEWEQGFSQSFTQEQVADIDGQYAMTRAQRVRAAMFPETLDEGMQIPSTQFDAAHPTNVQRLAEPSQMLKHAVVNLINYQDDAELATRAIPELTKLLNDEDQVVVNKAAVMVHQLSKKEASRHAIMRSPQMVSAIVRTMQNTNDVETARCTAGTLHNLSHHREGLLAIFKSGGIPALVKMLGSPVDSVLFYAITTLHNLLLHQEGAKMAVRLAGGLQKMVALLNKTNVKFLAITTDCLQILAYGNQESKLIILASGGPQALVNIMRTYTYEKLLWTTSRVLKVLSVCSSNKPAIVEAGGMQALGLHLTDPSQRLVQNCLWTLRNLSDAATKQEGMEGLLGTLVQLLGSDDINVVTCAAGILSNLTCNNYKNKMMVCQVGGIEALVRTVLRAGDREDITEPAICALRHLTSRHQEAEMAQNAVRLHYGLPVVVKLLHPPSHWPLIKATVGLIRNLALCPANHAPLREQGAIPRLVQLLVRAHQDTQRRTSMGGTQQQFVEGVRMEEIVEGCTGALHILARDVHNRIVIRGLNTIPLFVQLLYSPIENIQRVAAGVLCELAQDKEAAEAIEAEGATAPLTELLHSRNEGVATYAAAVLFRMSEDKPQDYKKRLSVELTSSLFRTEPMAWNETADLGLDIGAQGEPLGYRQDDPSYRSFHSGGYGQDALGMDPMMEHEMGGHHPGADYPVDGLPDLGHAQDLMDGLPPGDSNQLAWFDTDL

[4] = molecular target: full-length beta-Catenin (Uniprot ID P35222) (Homo sapiens (Human)) (UniProt P35222); assay: fluorescence polarization competition; full-length beta-catenin with 5FAM-TCF4(10-53) probe as competitor
Target sequence in this assay (P35222 whole entry, the tested form may be a part, one chain of several): as the sequence (P35222 whole entry, the tested form may be a part, one chain of several) above

[5] = molecular target: full-length beta-Catenin (Uniprot ID P35222) (Homo sapiens (Human)) (UniProt P35222); assay: fluorescence polarization competition; full-length beta-catenin, 5FAM-TCF4 10-53 probe
Target sequence in this assay (P35222 whole entry, the tested form may be a part, one chain of several): as above

[6] = molecular target: full-length beta-Catenin (Uniprot ID P35222) (Homo sapiens (Human)) (UniProt P35222); assay: fluorescence polarization competition; full-length beta-catenin, competitor 5FAM-TCF4(10-53) probe
Target sequence in this assay (P35222 whole entry, the tested form may be a part, one chain of several): as above

[7] = molecular target: full-length beta-Catenin (Uniprot ID P35222) (Homo sapiens (Human)) (UniProt P35222); assay: FP competition vs 5FAM-TCF4(10-53), full-length beta-catenin
Target sequence in this assay (P35222 2-781 limits assumed): as the sequence (P35222 2-781 limits assumed) above

Bcat-Halo = Bcat-Halo (UniProt P35222); assay: NanoBRET Abs IC50, HEK293 cells, B-cat-Halo/TCF4-Luc; competitor TCF4-Luc
[8] = molecular target: full-length beta-Catenin (Uniprot ID P35222) (Homo sapiens (Human)) (UniProt P35222); assay: fluorescence polarization competition; peptide titrated against 10 nM full-length beta-catenin + 10 nM 5FAM-TCF4(10-53) probe
Target sequence in this assay (P35222 whole entry, the tested form may be a part, one chain of several): as the sequence (P35222 whole entry, the tested form may be a part, one chain of several) above

Chain of Bcat-Halo (P35222 whole entry): as the sequence (P35222 whole entry, the tested form may be a part, one chain of several) above
Chain of Bcat-Halo (beta-catenin HaloTag construct expressed in HEK293 cells) (P35222 whole entry, the tested form may be a part): as the sequence (P35222 whole entry, the tested form may be a part, one chain of several) above

Row | Binder | IC50 [1] [nM] | IC50 [2] [nM] | EC50 [3] [nM] | IC50 [4] [nM] | IC50 [5] [nM] | other results
1 | Ac-[αAllylPro]D[tBuAla][B5(4)]DQAAFN[PyrS2″][3Thi][Bta]H-NH2 (staple 1-4, 4-11) [I-839] | 7 | 41900 | 7 |  |  | 
2 | Ac-[αAllylPro]D[tBuAla][B5(4)]DYAAFN[PyrS2″][3Thi][Bta]Q-NH2 (staple 1-4, 4-11) [I-842] | 34 | 47900 | 34 |  |  | 
3 | Ac-[αAllylPro]DI[B5(5)]D[EtGA]AAFQ[S8]F[Bta]Q-NH2 (staple 1-4, 4-11; also: staple isomer 2) [I-609] |  |  |  | 80 | 80 | EC50 [6]: 80 nM
4 | Ac-[αAllylPro]DI[B5(5)]D[EtGA]AAFQ[S8]F[Bta]Q-NH2 (staple 1-4, 4-11; not fully specified; printed as Ac-PL3-Asp-Ile-B5-Asp-EtGa-Ala-Ala-Phe-Gln-S8-Phe-BztA-Gln-NH2) [I-608] |  |  |  | 211 | 211 | EC50 [6]: 211 nM
5 | Ac-[αAllylPro]D[tBuAla][B5(4)]D[Cit]AAFN[PyrS2″][3Thi][Bta]H-NH2 (staple 1-4, 4-11) [I-841] | 12 | 34400 | 12 |  |  | 
6 | Ac-[αAllylPro]D[tBuAla][B5(4)]DQAAFN[PyrS2″][3Thi][Bta]Q-NH2 (staple 1-4, 4-11) [I-838] | 12 | 17400 | 12 |  |  | 
7 | Ac-[αAllylPro]D[tBuAla][B5(12)]DHAAFN[PyrS2][3Thi][Bta]-NH2 (staple 1-4, 4-11) [I-863] |  |  | 22 |  |  | IC50 [7]: 22 nM; IC50 (Bcat-Halo): > 20000 nM
8 | Ac-[αAllylPro]DI[B5]D[TfeGA]AAFQ[S8]F[Bta]Q-NH2 (staple 1-4, 4-11; not fully specified) [I-610] |  |  |  | 54 | 54 | EC50 [6]: 54 nM
9 | Ac-[αAllylPro]DI[B5]D[Aad]AAFQ[S8]F[Bta]Q-NH2 (staple 1-4, 4-11) [I-612] |  |  |  | 64 | 64 | EC50 [8]: 64 nM
10 | Ac-[αAllylPro]D[tBuAla][B5(4)]DNAAFN[PyrS2″][3Thi][Bta]H-NH2 (staple 1-4, 4-11) [I-837] | 5 | 23800 | 5 |  |  | 
11 | Ac-[αAllylPro]DI[B5]D[TfeGA]AAFQ[S8]F[Bta]Q-NH2 (staple 1-4, 4-11; also: later-eluting staple isomer) [I-611] |  |  |  | 55 | 55 | EC50 [8]: 55 nM
12 | Ac-[αAllylPro]D[tBuAla][B5(12)]DQAAFN[PyrS2][3Thi][Bta]-NH2 (staple 1-4, 4-11) [I-858] |  |  | 34 |  |  | IC50 [7]: 34 nM; IC50 (Bcat-Halo): > 20000 nM
13 | Ac-[αAllylPro]D[tBuAla][B5(12)]DTAAFN[PyrS2][3Thi][Bta]-NH2 (staple 1-4, 4-11; also: earlier eluting staple isomer) [I-859] |  |  | 36 |  |  | IC50 [7]: 36 nM; IC50 (Bcat-Halo): > 20000 nM
